Kd and IC50 data for 37 sequences are collected here from the Immune Epitope Database (IEDB).

One test deals with HLA-A*30:02. The test is described as follows: IEDB peptide-MHC binding, purified MHC/competitive/radioactivity; filed as Kd, often an IC50 or EC50 that approximates it; ≥ and ≤ were set here for values at or beyond the usual limits of such assays.
The target of another test is HLA-B*44:03. Described as above.
Another test addresses HLA-B*44:02. Described as above.
The next test addresses HLA-A*32:01. The description is as above. To be noted: source organism: Dengue virus 1 Brazil/97-11/1997.
In another test the target is HLA-A*02:02. The test is described as above.
The next test has as its target HLA-A*68:02. Described as above.
The target in the next test is HLA-A*02:06. The description is as above.
Another test deals with HLA-A*02:03. The description is as above.
A further test addresses HLA-B*08:01. The test is described as above.
The next test has as its target HLA-B*40:01. The test is described as above.
The target in test [1] is HLA-A*02:01. The test is described as follows: IEDB peptide-MHC binding, purified MHC/competitive/fluorescence; ≥ and ≤ were set here for values at or beyond the usual limits of such assays. The following applies: source organism: Hepatitis C virus genotype 1.
The next test deals with HLA-B*53:01. The test is described as follows: IEDB peptide-MHC binding, purified MHC/competitive/radioactivity; filed as Kd, often an IC50 or EC50 that approximates it; ≥ and ≤ were set here for values at or beyond the usual limits of such assays.
A further test has as its target HLA-B*35:01. The description is as above.
For a further test, the target named is HLA-B*51:01. The description is as above.
For a further test, the target named is HLA-A*26:01. Described as above. The following applies: source organism: Dengue virus 1 Brazil/97-11/1997.
The target of test [2] is HLA-A*02:01. The test is described as follows: IEDB peptide-MHC binding, purified MHC/competitive/fluorescence; filed as Kd, often an IC50 or EC50 that approximates it; ≥ and ≤ were set here for values at or beyond the usual limits of such assays. To be noted: source organism: Hepacivirus hominis.
A further test deals with HLA-A*01:01. The test is described as follows: IEDB peptide-MHC binding, purified MHC/competitive/radioactivity; filed as Kd, often an IC50 or EC50 that approximates it; ≥ and ≤ were set here for values at or beyond the usual limits of such assays. The following applies: source organism: Dengue virus 3 Martinique/1243/1999.
The target in another test is HLA-A*23:01. The test is described as above. To be noted: source organism: Dengue virus 4 Dominica/814669/1981.
[3] abbreviates: source organism: Dengue virus 1 Brazil/97-11/1997.
The mark [4] stands for this setting: source organism: Dengue virus 4 Philippines/H241/1956.
The mark [5] stands for this setting: source organism: Vaccinia virus WR.
Setting [6] is: source organism: Hepatitis C virus (isolate 1).
Setting [7] is: source organism: Dengue virus 2 Jamaica/1409/1983.
The mark [8] stands for this setting: source organism: Trypanosoma cruzi.
[9] abbreviates: source organism: Dengue virus 3 Martinique/1243/1999.

As to AAVLMLVAHY, the Kd with HLA-A*30:02 (setting [3]) was 508 nM. As to AEIQPQWIA, the values for the Kd in the test with HLA-B*44:03 (setting [4]) and with HLA-B*44:02 (setting [4]) were 1230 nM and 26.4 nM, respectively. As for AGILARWSSF, the figures for the dissociation constant Kd in the test with HLA-B*44:02 (setting [3]) and in the test with HLA-A*32:01 were 5110 nM and 2820 nM, respectively. As to ALEAKIAQL, the Kd in the test with HLA-A*02:02 (source organism: Homo sapiens) worked out at 14.8 nM; with HLA-A*68:02 (source organism: Homo sapiens) it was 7300 nM; with HLA-A*02:06 (source organism: Homo sapiens), 1100 nM; in the test with HLA-A*02:03 (source organism: Homo sapiens), 46.7 nM. With ALRPSTSRSL, the Kd with HLA-A*68:02 (source organism: Homo sapiens) is not below 60000 nM.

As to ALRSRIREL, the Kd in the test with HLA-B*08:01 (setting [5]) stood at 0.455 nM.

As to ASMAICSAV, the Kd in the test with HLA-A*68:02 (setting [4]) stood at 63.7 nM. On to CESCVYNMM, for which the Kd came out at 201 nM with HLA-B*40:01 (setting [4]) and 180 nM in the test with HLA-B*44:02 (setting [4]).

On to CINGVCWTV, for which the Kd in the test with HLA-A*02:02 (setting [6]) worked out at 3350 nM; with HLA-A*68:02 (setting [6]), 3780 nM; with HLA-A*02:06 (setting [6]), 4370 nM; in the test with HLA-A*02:03 (setting [6]), 6440 nM. The same sequence yielded an IC50 with HLA-A*02:01 [1] not below 50000 nM.

With DKRMKSLAM, the Kd in the test with HLA-B*08:01 (setting [5]) is 9.85 nM. With DRRSFFKCF, in the test with HLA-B*08:01 (source organism: Vaccinia virus Copenhagen), the Kd was found to be 75.7 nM.

On to EEIAVQNWLA, for which, in the test with HLA-B*44:03 (setting [7]), the Kd amounted to 431 nM. In the case of EELGDGLAM, the Kd with HLA-B*40:01 (setting [3]) is 221 nM; in the test with HLA-B*44:03 (setting [3]) it was 76.6 nM.

Regarding EEQTLTILI, the Kd with HLA-B*44:03 (setting [7]) is 146 nM; in the test with HLA-B*44:02 (setting [7]), 14 nM.

EEYTDYMPSM: the Kd with HLA-B*40:01 (setting [7]) turned out to be 833 nM; with HLA-B*44:03 (setting [7]) it was 116 nM. On to ELREIFRRL, for which the Kd with HLA-B*08:01 (setting [5]) was found to be 26.5 nM. As to EPGQLKLNWF, the results for the Kd with HLA-B*53:01 (setting [7]) and in the test with HLA-B*35:01 (setting [7]) were 593 nM and not below 42000 nM, respectively. In the case of FEKQLGQIM, the figures for the Kd in the test with HLA-B*40:01 (setting [3]) and in the test with HLA-B*44:02 (setting [3]) were 558 nM and 2550 nM, respectively.

As to FMYTKHSML, the Kd with HLA-A*02:02 (setting [5]) came to 2.4 nM; with HLA-B*08:01 (setting [5]) it was 0.2 nM; with HLA-A*02:06 (setting [5]) it was 222 nM; with HLA-A*02:03 (setting [5]) it was 0.394 nM. Take FPGKTVWFV: the Kd is 6360 nM with HLA-B*51:01 (setting [3]) and 86.1 nM with HLA-B*53:01 (setting [3]).

Take FVNHRFTLV: the Kd with HLA-A*02:02 (setting [8]) amounted to 81.8 nM; with HLA-A*68:02 (setting [8]), 89.3 nM; in the test with HLA-A*02:06 (setting [8]), 6.57 nM; in the test with HLA-A*02:03 (setting [8]) it was 1.38 nM. In the case of GEDAPCKIPF, in the test with HLA-B*44:02 (setting [9]), the Kd was 59.2 nM. Consider GESSPNPTI, for which the figures for the Kd in the test with HLA-B*40:01 (setting [7]) and with HLA-B*44:02 (setting [7]) were 8.75 nM and 83.5 nM, respectively. In the case of GVVTTSGTY, the Kd worked out at 403 nM with HLA-A*26:01 and 169 nM in the test with HLA-A*30:02 (setting [3]). As to IANQAAILM, in the test with HLA-B*35:01 (setting [3]), the Kd turned out to be 103 nM. Take IENSSVNVSL: the figures for the Kd with HLA-B*40:01 (setting [7]) and with HLA-B*08:01 (setting [7]) were 1.59 nM and 764 nM, respectively.

ILDSFDPLV came in with a Kd in the test with HLA-A*02:01 [2] of 0.6 nM.

As to ILEDQNCKL, in the test with HLA-A*68:02 (source organism: Homo sapiens), the Kd was not below 60000 nM. Consider IPPTAGVLA, for which the Kd with HLA-B*51:01 (setting [9]) came out at 6140 nM. For KEENLVKSMV, the dissociation constant Kd with HLA-B*44:03 (source organism: Dengue virus 1 Singapore/S275/1990) is not below 22100 nM. For the sequence KLELKGMSY, the Kd in the test with HLA-A*01:01 is 391 nM; with HLA-A*30:02 (setting [9]) it was not below 76900 nM. Regarding KLKKLEEEQI, the values for the Kd with HLA-A*68:02 (source organism: Homo sapiens) and with HLA-A*02:06 (source organism: Homo sapiens) were not below 60000 nM and not below 59100 nM, respectively.

As for LAGPMPVTV, the Kd with HLA-B*51:01 (setting [3]) was 870 nM. With LAHAIGTSI, the Kd in the test with HLA-B*51:01 (setting [3]) is 157 nM. As for LAIMAVFKM, in the test with HLA-B*35:01 (setting [4]), the Kd was found to be 22.2 nM. LATGPVLTLW: the Kd in the test with HLA-B*53:01 (setting [4]) amounted to 44.8 nM. In the case of LCLIPTVMAF, the Kd with HLA-A*23:01 amounted to 454 nM.
